T1: Recombinant human B7-1/CD80 Fc chimera (Cat. 140-B1-100, R&D Systems) (human, UniProt P33681 35-242)
T1 construct: extracellular domain; also called B7-1 antigen; Fc part of the bought chimera not given; not described
T1 sequence (looked up): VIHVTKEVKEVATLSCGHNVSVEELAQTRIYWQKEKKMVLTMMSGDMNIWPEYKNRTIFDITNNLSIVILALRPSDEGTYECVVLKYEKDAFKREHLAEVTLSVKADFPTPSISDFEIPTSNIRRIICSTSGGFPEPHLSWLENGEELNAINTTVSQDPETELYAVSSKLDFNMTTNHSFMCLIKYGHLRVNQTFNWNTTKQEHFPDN

T2: Recombinant human B7-2/CD86 Fc chimera (Cat. 141-B2-100, R&D Systems) (human, UniProt P42081 26-245)
T2 construct: Fc part of the bought chimera not given; not described
T2 sequence (looked up): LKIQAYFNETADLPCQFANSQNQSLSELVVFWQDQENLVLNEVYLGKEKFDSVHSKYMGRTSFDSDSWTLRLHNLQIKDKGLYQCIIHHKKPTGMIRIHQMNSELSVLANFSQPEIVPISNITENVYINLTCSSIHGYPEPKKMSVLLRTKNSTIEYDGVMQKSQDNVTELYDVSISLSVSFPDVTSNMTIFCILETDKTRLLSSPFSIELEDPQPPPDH


What was measured:
[1] = molecular target: T1, Recombinant human B7-1/CD80 Fc chimera …; assay: competitive ELISA; coated CD28 Fc, biotinylated B7-1/CD80 Fc (2 nM), construct titrated
Experimental: (§1) ELISA plates (Nunc, MaxiSorp, Rochester, N.Y.) were incubated overnight at 4° C. with Recombinant Human CD28 Fc Chimera (Cat. #342-CD-200). Plates were washed three times in washing buffer (PBS containing 0.05% Tween 20), and blocked for 1 hour at 25° C. in blocking buffer (PBS containing 1% BSA). Wells were washed three times, and serial dilutions of each antibody or DVD-Ig in PBS containing 0.1% BSA were added to the wells and incubated at 25° C. for 1 hour. The wells were washed three times, and biotinylated antigen (2 nM) was added to the plates and incubated for 1 hour at 25° C. The wells were washed three times and incubated for 1 hour at 25° C. with streptavidin-HRP (KPL #474-3000, Gaithersburg, Md.). The wells were washed three times, and 100 μl of ULTRA-TMB ELISA (Pierce, Rockford, Ill.) was added per well. Following color development the reaction was stopped with 1N HCL and absorbance at 450 nm was measured. Recombinant human B7-1/CD80 Fc chimera (Cat. 140-B1-100, R&D Systems, Minneapolis, Minn.) was used.

[2] = molecular target: T2, Recombinant human B7-2/CD86 Fc chimera …; assay: competitive ELISA; coated CD28 Fc, biotinylated B7-2/CD86 Fc, construct titrated
Experimental: as §1
Recombinant human B7-2/CD86 Fc chimera (Cat. 141-B2-100, R&D Systems, Minneapolis, Minn.) was used.

[3] = molecular target: NGF; assay: cell-based or functional assay
[4] = molecular target: T1, Recombinant human B7-1/CD80 Fc chimera …; assay: direct bind ELISA, coated recombinant human B7-1/CD80 Fc chimera
Experimental: Enzyme Linked Immunosorbent Assays (ELISA) to screen for antibodies that bind a desired target antigen were performed as follows. High bind ELISA plates (Corning Costar #3369, Acton, Mass.) were coated with 100 μL/well of 10 μg/ml of desired target antigen (R&D Systems, Minneapolis, Minn.) or desired target antigen extra-cellular domain/FC fusion protein (R&D Systems, Minneapolis, Minn.) or monoclonal mouse anti-polyHistidine antibody (R&D Systems #MAB050, Minneapolis, Minn.) in phosphate buffered saline (10×PBS, Abbott Bioresearch Center, Media Prep#MPS-073, Worcester, Mass.) overnight at 4° C. Plates were washed four times with PBS containing 0.02% Tween 20. Plates were blocked by the addition of 300 μL/well blocking solution (non-fat dry milk powder, various retail suppliers, diluted to 2% in PBS) for ½ hour at room temperature. Plates were washed four times after blocking with PBS containing 0.02% Tween 20.
One hundred microliters of 10 ng/mL goat anti-human IgG-FC specific HRP conjugated antibody (Southern Biotech #2040-05, Birmingham, Ala.) was added to each well of the desired target antigen plate or anti-polyHistidine antibody/Histidine tagged desired target antigen plate. Alternatively, one hundred microliters of 10 ng/mL goat anti-human IgG-kappa light chain specific HRP conjugated antibody (Southern Biotech #2060-05 Birmingham, Ala.) was added to each well of the desired target antigen/FC fusion plate and incubated for 1 hour at room temperature. Plates were washed 4 times with PBS containing 0.02% Tween 20.
One hundred microliters of enhanced TMB solution (Neogen Corp. #308177, K Blue, Lexington, Ky.) was added to each well and incubated for 10 minutes at room temperature. The reaction was stopped by the addition of 50 μL 1N sulphuric acid. Plates were read spectrophotometrically at a wavelength of 450 nm

EC50 [1] [nM] | EC50 [2] [nM] | Binder | other results
6.6 | 2.1 | RAB007 (other, rDVD-Ig with LEA29Y on both chains; also called RAB007H; RAB007L) VH: AMHVAQPAVVLASSRGIASFVCEYASPGKYTEVRVTVLRQADSQVTEVCAATYMMGNELTFLDDSICTGTSSGNQVNLTIQGLRAMDTGLYICKVELMYPPPYYEGIGNGTQIYVIDPEPCPDSDASTKGPEVQLVQSGAEVKKPGASVKVSCKASGYTFTKYWLGWVRQAPGQGLEWMGDIYPGYDYTHYNEKFKDRVTLTTDTSTSTAYMELRSLRSDDTAVYYCARSDGSSTYWGQGTLVTVSS VL: AMHVAQPAVVLASSRGIASFVCEYASPGKYTEVRVTVLRQADSQVTEVCAATYMMGNELTFLDDSICTGTSSGNQVNLTIQGLRAMDTGLYICKVELMYPPPYYEGIGNGTQIYVIDPEPCPDSDTVAAPDVLMTQTPLSLPVTPGEPASISCTSSQNIVHSNGNTYLEWYLQKPGQSPQLLIYKVSNRFSGVPDRFSGSGSGTDFTLKISRVEAEDVGVYYCFQVSHVPYTFGGGTKVEIKR | 
1.5 | 1 | RAB008 (other, rDVD-Ig with LEA29Y on the heavy chain only; also called RAB008H; RAB008L) VH: AMHVAQPAVVLASSRGIASFVCEYASPGKYTEVRVTVLRQADSQVTEVCAATYMMGNELTFLDDSICTGTSSGNQVNLTIQGLRAMDTGLYICKVELMYPPPYYEGIGNGTQIYVIDPEPCPDSDASTKGPEVQLVQSGAEVKKPGASVKVSCKASGYTFTKYWLGWVRQAPGQGLEWMGDIYPGYDYTHYNEKFKDRVTLTTDTSTSTAYMELRSLRSDDTAVYYCARSDGSSTYWGQGTLVTVSS VL: DVLMTQTPLSLPVTPGEPASISCTSSQNIVHSNGNTYLEWYLQKPGQSPQLLIYKVSNRFSGVPDRFSGSGSGTDFTLKISRVEAEDVGVYYCFQVSHVPYTFGGGTKVEIKR | 
 |  | Anti-NGF (antibody, V domains shown) VH: QVQLQESGPGLVKPSETLSLTCTVSGFSLIGYDLNWIRQPPGKGLEWIGIIWGDGTTDYNSAVKSRVTISKDTSKNQFSLKLSSVTAADTAVYYCARGGYWYATSYYFDYWGQGTLVTVSS VL: DIQMTQSPSSLSASVGDRVTITCRASQSISNNLNWYQQKPGKAPKLLIYYTSRFHSGVPSRFSGSGSGTDFTFTISSLQPEDIATYYCQQEHTLPYTFGQGTKLEIKR | C-terminal Bioassay Mean (IC50, nM): Cell Impedance assay [3]: 7.8 nM; C-terminal Bioassay Mean (IC50, nM): pERK assay [3]: 0.6 nM
1.6 | 1.3 | RAB011 (other, rDVD-Ig with LEA29Y on the heavy chain only and anti-NGF variable domains; also called RAB011H; RAB011L) VH: AMHVAQPAVVLASSRGIASFVCEYASPGKYTEVRVTVLRQADSQVTEVCAATYMMGNELTFLDDSICTGTSSGNQVNLTIQGLRAMDTGLYICKVELMYPPPYYEGIGNGTQIYVIDPEPCPDSDASTKGPQVQLQESGPGLVKPSETLSLTCTVSGFSLIGYDLNWIRQPPGKGLEWIGIIWGDGTTDYNSAVKSRVTISKDTSKNQFSLKLSSVTAADTAVYYCARGGYWYATSYYFDYWGQGTLVTVSS VL: DIQMTQSPSSLSASVGDRVTITCRASQSISNNLNWYQQKPGKAPKLLIYYTSRFHSGVPSRFSGSGSGTDFTFTISSLQPEDIATYYCQQEHTLPYTFGQGTKLEIKR | 
2.5 | 4.2 | RAB012 (other, rDVD-Ig with LEA29Y on the light chain only and anti-NGF variable domains; also called RAB012H; RAB012L) VH: QVQLQESGPGLVKPSETLSLTCTVSGFSLIGYDLNWIRQPPGKGLEWIGIIWGDGTTDYNSAVKSRVTISKDTSKNQFSLKLSSVTAADTAVYYCARGGYWYATSYYFDYWGQGTLVTVSS VL: AMHVAQPAVVLASSRGIASFVCEYASPGKYTEVRVTVLRQADSQVTEVCAATYMMGNELTFLDDSICTGTSSGNQVNLTIQGLRAMDTGLYICKVELMYPPPYYEGIGNGTQIYVIDPEPCPDSDTVAAPDIQMTQSPSSLSASVGDRVTITCRASQSISNNLNWYQQKPGKAPKLLIYYTSRFHSGVPSRFSGSGSGTDFTFTISSLQPEDIATYYCQQEHTLPYTFGQGTKLEIKR | 
2.4 | 0.8 | RAB021 (other, rDVD-Ig with LEA29Y on the light chain only and a QH linker; also called RAB021H; RAB021L) VH: EVQLVQSGAEVKKPGASVKVSCKASGYTFTKYWLGWVRQAPGQGLEWMGDIYPGYDYTHYNEKFKDRVTLTTDTSTSTAYMELRSLRSDDTAVYYCARSDGSSTYWGQGTLVTVSS VL: AMHVAQPAVVLASSRGIASFVCEYASPGKYTEVRVTVLRQADSQVTEVCAATYMMGNELTFLDDSICTGTSSGNQVNLTIQGLRAMDTGLYICKVELMYPPPYYEGIGNGTQIYVIDPEPCPDSDQEPKSSDKTHTSPDVLMTQTPLSLPVTPGEPASISCTSSQNIVHSNGNTYLEWYLQKPGQSPQLLIYKVSNRFSGVPDRFSGSGSGTDFTLKISRVEAEDVGVYYCFQVSHVPYTFGGGTKVEIKR | EC50 [4]: 2.5 nM
 |  | RAB019 (other, rDVD-Ig with LEA29Y on both chains and QH linkers; also called RAB019H; RAB019L) VH: AMHVAQPAVVLASSRGIASFVCEYASPGKYTEVRVTVLRQADSQVTEVCAATYMMGNELTFLDDSICTGTSSGNQVNLTIQGLRAMDTGLYICKVELMYPPPYYEGIGNGTQIYVIDPEPCPDSDQEPKSSDKTHTSPEVQLVQSGAEVKKPGASVKVSCKASGYTFTKYWLGWVRQAPGQGLEWMGDIYPGYDYTHYNEKFKDRVTLTTDTSTSTAYMELRSLRSDDTAVYYCARSDGSSTYWGQGTLVTVSS VL: AMHVAQPAVVLASSRGIASFVCEYASPGKYTEVRVTVLRQADSQVTEVCAATYMMGNELTFLDDSICTGTSSGNQVNLTIQGLRAMDTGLYICKVELMYPPPYYEGIGNGTQIYVIDPEPCPDSDQEPKSSDKTHTSPDVLMTQTPLSLPVTPGEPASISCTSSQNIVHSNGNTYLEWYLQKPGQSPQLLIYKVSNRFSGVPDRFSGSGSGTDFTLKISRVEAEDVGVYYCFQVSHVPYTFGGGTKVEIKR | binding result [4]: no binding
78.9 |  | RAB015 (other, rDVD-Ig with LEA29Y on the light chain only and a long linker; also called RAB015H; RAB015L) VH: EVQLVQSGAEVKKPGASVKVSCKASGYTFTKYWLGWVRQAPGQGLEWMGDIYPGYDYTHYNEKFKDRVTLTTDTSTSTAYMELRSLRSDDTAVYYCARSDGSSTYWGQGTLVTVSS VL: AMHVAQPAVVLASSRGIASFVCEYASPGKYTEVRVTVLRQADSQVTEVCAATYMMGNELTFLDDSICTGTSSGNQVNLTIQGLRAMDTGLYICKVELMYPPPYYEGIGNGTQIYVIDPEPCPDSDTVAAPSVFIFPPDVLMTQTPLSLPVTPGEPASISCTSSQNIVHSNGNTYLEWYLQKPGQSPQLLIYKVSNRFSGVPDRFSGSGSGTDFTLKISRVEAEDVGVYYCFQVSHVPYTFGGGTKVEIKR | EC50 [4]: 34.9 nM
2.7 | 0.3 | RAB009 (other, rDVD-Ig with LEA29Y on the light chain only; also called RAB009H; RAB009L) VH: EVQLVQSGAEVKKPGASVKVSCKASGYTFTKYWLGWVRQAPGQGLEWMGDIYPGYDYTHYNEKFKDRVTLTTDTSTSTAYMELRSLRSDDTAVYYCARSDGSSTYWGQGTLVTVSS VL: AMHVAQPAVVLASSRGIASFVCEYASPGKYTEVRVTVLRQADSQVTEVCAATYMMGNELTFLDDSICTGTSSGNQVNLTIQGLRAMDTGLYICKVELMYPPPYYEGIGNGTQIYVIDPEPCPDSDTVAAPDVLMTQTPLSLPVTPGEPASISCTSSQNIVHSNGNTYLEWYLQKPGQSPQLLIYKVSNRFSGVPDRFSGSGSGTDFTLKISRVEAEDVGVYYCFQVSHVPYTFGGGTKVEIKR | 

Reference: US20140219913A1 (AbbVie / Abbott, published 2014)
